Experimental data as given in PMC6327041 (Nature Communications, 2019).
Substitutions are numbered along the chain they refer to. Read-outs that look alike come from different tables or passages of the source.

Key:
[1] = biological target: T1, S287-K347 PHD1 (KDM5A, GST-PHD1) (Homo sapiens, UniProt P29375); assay: Fluorescence polarization binding to PHD1 S287-K347
T1 construct: Expression of GST-PHD1 (Ser287-Lys347); GST (N); made in house; host or cells: E. coli BL21(DE3)
T1 sequence (P29375 287-347): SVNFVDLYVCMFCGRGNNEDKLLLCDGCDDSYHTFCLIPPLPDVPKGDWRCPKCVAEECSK
Description: (§1) All PHD1 constructs used (Val291-[…], S287-K347, and S287-K347 D292A) (Supplementary Figure 1) were cloned into a pET41a vector and expressed in BL21(DE3) E. coli cells. Expression and purification of all mutants followed the same protocol. Specifically, cells were induced with 0.4 mM IPTG and grown at 18 °C overnight before the pellet was collected. The cells were resuspended in lysis buffer (140 mM NaCl, 2.7 mM KCl, 10 mM Na2HPO4, 1.8 mM KH2PO4, 0.5 mM TCEP, 50 µM ZnCl2, 1 mM phenylmethylsulfonyl fluoride (PMSF), pH 7.3), lysed by sonication and centrifuged. The supernatant was purified using Glutathione Sepharose 4B resin, washed with high salt buffer (50 mM HEPES, 700 mM KCl, 10% glycerol, 0.5 mM TCEP, […], 1 mM PMSF, pH 8) and low salt buffer (50 mM HEPES, 150 mM KCl, 10% glycerol, 0.5 mM TCEP, […], 1 mM PMSF, pH 8) and recovered by elution using low salt buffer with 30 mM glutathione. The sample was then concentrated and further purified by size-exclusion chromatography using a Hiload 26/60 Superdex 75 gel filtration column. Samples were eluted into 40 mM HEPES, 50 mM KCl, 0.5 mM TCEP, and […] and flash-frozen.
Data from direct FP measurements were fitted to equation 1: FPobs=FPmaxPHD1+FPminKd/Kd+[PHD1]
Data from competition-based FP assays were fitted to equation 2: FPobs=KiFPmaxPHD1+FPminKd+FPminKd[I]/KiKd+[PHD1]+Kd[I] where FPobs is the observed FP, FPmax is the maximum FP value, FPmin is the minimum FP value, [PHD1] is concentration of PHD1, Kd is the dissociation constant, Ki is the inhibition constant referring to the competing peptide and [I] is the competing peptide concentration.

KDM5A1-797 = biological target: T2, KDM5A1-797 (Homo sapiens, UniProt P29375); assay: KDM5A demethylation, FDH-coupled formaldehyde release assay; type: biochemical; details: for kcat / Km: 1 μM KDM5A, pH 7.5, room temperature, n ≥ 3, s.e.m.; for Km: read-out: Km
T2 construct: KDM5A1-797 was cloned into a pFASTBAC HTA vector; His (N, cleaved yes); made in house; host or cells: Sf21 insect cells (baculovirus)
T2 sequence (P29375 1-797): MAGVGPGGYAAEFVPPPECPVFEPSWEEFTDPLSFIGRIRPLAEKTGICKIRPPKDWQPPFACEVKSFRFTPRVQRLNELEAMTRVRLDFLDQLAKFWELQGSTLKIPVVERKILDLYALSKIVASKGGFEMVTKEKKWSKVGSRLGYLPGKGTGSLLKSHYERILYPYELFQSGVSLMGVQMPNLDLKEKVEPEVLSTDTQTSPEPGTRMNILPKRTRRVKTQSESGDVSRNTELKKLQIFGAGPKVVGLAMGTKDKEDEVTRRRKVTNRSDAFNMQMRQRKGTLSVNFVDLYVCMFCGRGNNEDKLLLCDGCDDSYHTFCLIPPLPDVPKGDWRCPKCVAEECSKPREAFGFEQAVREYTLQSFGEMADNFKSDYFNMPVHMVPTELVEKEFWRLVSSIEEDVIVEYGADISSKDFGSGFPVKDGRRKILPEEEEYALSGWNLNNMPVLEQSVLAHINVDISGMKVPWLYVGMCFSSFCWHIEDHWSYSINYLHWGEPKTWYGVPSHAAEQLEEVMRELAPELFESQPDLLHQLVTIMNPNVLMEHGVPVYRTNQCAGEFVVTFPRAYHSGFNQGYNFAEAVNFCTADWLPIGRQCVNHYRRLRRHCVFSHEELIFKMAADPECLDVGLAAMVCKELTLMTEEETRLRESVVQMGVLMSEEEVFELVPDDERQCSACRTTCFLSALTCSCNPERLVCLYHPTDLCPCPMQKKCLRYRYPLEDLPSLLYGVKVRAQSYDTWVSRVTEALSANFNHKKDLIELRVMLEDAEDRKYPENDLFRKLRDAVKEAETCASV
Description: WT KDM5A1-797 was expressed in Sf21 cells following Invitrogen Bac-to-Bac baculovirus expression system protocol. KDM5A1-797 was cloned into a pFASTBAC HTA vector. Purified bacmid was transfected in Sf21 cells. Approximately […] cells per well of a six-well dish were allowed to attach in 2 ml of SF-900 II SFM media containing 50 U ml^−1 penicillin and 50 μg ml^−1 streptomycin. While cells attached, 8 μl of Cellfectin II reagent (Invitrogen) in 100 μl of unsupplemented Grace’s medium was mixed with ~2–5 μg of bacmid in 100 μl of unsupplemented Grace’s medium and incubated for 15–30 min at 25 °C. Once cells were attached, media was removed and cells were washed with 2 ml of Grace’s unsupplemented media. The bacmid DNA:Cellfectin mixture was then diluted to 1 ml with Grace’s unsupplemented media and added to the well. Cells with bacmid:Cellfectin II mixture were incubated for 5 h at 27 °C. After 5 h of incubation, bacmid:Cellfectin mixture was removed and replaced with 2 ml of SF-900 II SFM 50 U ml^−1 penicillin and 50 μg ml^−1 streptomycin. Transfected cells were incubated 3–5 days or until signs of viral infection were observed. After transfection, the supernatant was spun down to remove the dead cells. The supernatant was then sterile filtered to obtain the P1 viral stock. To make P2, 20 ml of […] at ~2 × 10^6 cells per ml of sf21 was infected with 2 ml of P1 virus and incubated for 48–60 h. After 56 h, the cells were spun down and the supernatant was collected and sterile filtered to obtain P2 viral stock. Similarly, P3 viral stock from P2 viral stock was obtained. Generally, 1 l of Sf21 at 2 × 10^6 cells per ml was infected with ~40 ml of P3 virus for ~48–56 h. Cells were then collected and resuspended in the lysis buffer (25 mM HEPES pH 7.9, 350 mM NaCl, 5 mM KCl, 1.5 mM MgCl2, 10 mM imidazole, aprotinin 2 μg ml^−1, leupeptin 3 μg ml^−1, pepstatin 3 μg ml^−1, and 1 mM PMSF). Cells were homogenized by emulsiflex. After lysis, the supernatant was recovered by centrifuging at 35k r.p.m. for 45 min, and incubated with cobalt resin equilibrated in lysis buffer for 1 h at 4 °C. After incubation the resin was washed with wash buffer (25 mM HEPES, pH 7.9, 350 mM NaCl, 0.5 mM MgCl2, 10% glycerol, 10 mM imidazole, aprotinin 2 μg ml^−1, leupeptin 3 μg ml^−1, pepstatin 3 μg ml^−1, and 1 mM PMSF). His-KDM5A was eluted with elution buffer (25 mM HEPES pH 7.9, 100 mM NaCl, 0.5 mM MgCl2, 10% glycerol, 100 mM imidazole, aprotinin 2 μg ml^−1, leupeptin 3 μg ml^−1, pepstatin 3 μg ml^−1, and 1 mM PMSF). The His-tag was removed by overnight incubation with TEV protease at 4 °C in the dialysis buffer (25 mM HEPES, pH 7.9, 100 mM NaCl, and 2 mM DTT). After cleavage, protein was further purified by size-exclusion chromatography using a S200 column. Purified KDM5A was eluted, aliquoted and stored at −80 °C in 40 mM HEPES, pH 7.9, 50 mM KCl.
Michaelis–Menten parameters were determined using Graphpad Prism.

[2] = biological target: T3, S287-K347 PHD1 D292A (KDM5A, GST-PHD1) (Homo sapiens, UniProt P29375, D292A); assay: Fluorescence polarization binding to PHD1 S287-K347 D292A; details: compared to WT PHD1S287-K347
T3 construct: S287-K347, and S287-K347 D292A; GST (N); made in house; host or cells: E. coli BL21(DE3)
T3 sequence (P29375 287-347 D292A): T1 sequence (P29375 287-347) with D6A
Description: as §1
Data from direct FP measurements were fitted to equation 1: FPobs=FPmaxPHD1+FPminKd/Kd+[PHD1] […]

PHD1KDM5B = details: cited from earlier work
From the text: This study presents a significant amount of biochemical and biophysical work to reveal the molecular basis underlying the allosteric enhancement in a quantitative manner. […] H ...

For `C[C@H](N)C(=O)N[C@@H](C)C(=O)N[C@H](C(=O)N[C@@H](CCCCN)C(=O)N[C@@H](CCC(N)=O)C(=O)N[C@H](C(=O)N[C@@H](C)C(=O)N[C@@H](CCCNC(=N)N)C(=O)N[C@@H](CCCCN)C(=O)N[C@@H](CO)C(=O)O)[C@@H](C)O)[C@@H](C)O` [H3R2A], the Kd ([1]; modified H3 10mer N-terminal peptides, competition-based FP, NB = no binding, n ≥ 3, s.e.m., construct not stated in legend, read-out: PHD1 binding Kd (Fig. 4a)) was 205 ± 73 µM.

For “Ac-H3K4me2 21mer: N-terminally acetylated 21mer H3K4me2 peptide (Ala1-Ala21)”, the “reduction in Km on addition of effector peptide” value (KDM5A1-797; 38 µM H3 10mer effector peptide vs none) was “fivefold”, the kcat/Km (KDM5A1-797; +H3 10mer peptide (38 µM)) was 427 ± 95 M⁻¹ s⁻¹ and the kcat (KDM5A1-797; +H3 10mer peptide (38 µM)) was 0.0233 ± 0.001 s⁻¹. The Km (KDM5A1-797; +H3 10mer peptide (38 µM)) was 54.7 ± 9.9 µM, the kcat/Km (KDM5A1-797; No effector peptide) was 98 ± 34 M⁻¹ s⁻¹ and the kcat (KDM5A1-797; No effector peptide) was 0.0225 ± 0.00183 s⁻¹. The Km (KDM5A1-797; No effector peptide) was 229 ± 60 µM and the “binding to PHD1 domain” value ([1]; FP, at the concentrations used in our assays (Supplementary Figure 3a: Ac-H3K4me2-FAM, PHD1S287-K347)) was “does not bind to the PHD1 domain”.

For “H3K4me0: C-terminal fluorescently labeled unmodified H3 10mer peptide, affinity by direct FP”, the “preference for WT H3 peptide over H3K4A peptide” value ([1]; ratio of Kd) was 2.3 fold, the “decrease in affinity, D292A vs WT PHD1S287-K347” value ([2]; listed as H3 peptide) was 7.6 fold and the “decrease in affinity, D292A vs WT PHD1S287-K347” value ([2]; listed as unmodified H3 peptide) was “approximately eightfold”. The “decrease in affinity for H3 peptide on mutation of the analogous Asp in KDM5B PHD1” value (PHD1KDM5B; PHD1KDM5B Asp mutant vs WT, ref Klein Cell Rep 2014 and Zhang Protein Cell 2014) was “approximately 6 fold” and the “discrimination of WT H3 over H3K4A peptide” value (PHD1KDM5B; PHD1KDM5B) was 2.5 fold.
